Test results reported in patent US20210388110A1.

Target: extracellular matrix (BD Matrigel)
Experiment: ECL on Matrigel-coated plate, relative to MRAH-G1d/MRAL-k0

| ECM binding ratio (standard = 1) | Binder |
| --- | --- |
| 0.5 | TR01H067-E2702GsKsc/GCH054-E2704sEpsc/L0201-k0 (bispecific antibody, human IgG4 S228P, kappa, N297A) heavy 1: QVQLVESGGGLVQPGRSLRLSCAASGFTFSNAWMHWVRQAPGKGLEWVAQIKDKSQNYATYYAESVKGRFTISRDDSKNSLYLQMNSLKTEDTAVYYCRYVHYAASYGVDAWGQGTTVTVSSASTKGPSVFPLAPCSRSTSESTAALGCLVKDYFPEPVTVSWNSGALTSGVHTFPAVLQSSGLYSLSSVVTVPSSSLGTKTYTCNVDHKPSNTKVDKRVESKYGPPCPPCPAPEFRGGPKVFLFPPKPKDTLMISRTPEVTCVVVDVSQEDPEVQFNWYVDGVEVHNAKTKPREEQFASTYRVVSVLTVLHQDWLNGKEYKCKVSNKGLPSSIEKTISKAKGQPREPQVYTLPPSQKEMTKNQVSLTCLVKGFYPSDIAVEWESNGQPENNYKTTPPVLDSDGSFFLYSKLTVDKSRWQEGNVFSCSVMHEALHNRYTQKSLSLSP heavy 2: QVQLVQSGAEVKKPGASVTVSCKASGYTFTDYEMHWIRQPPGEGLEWIGAIDGETPDTAYSEKFKGRVTLTADKSTSTAYMELSSLTSEDTAVYYCTRFYSYTYWGQGTLVTVSSASTKGPSVFPLAPCSRSTSESTAALGCLVKDYFPEPVTVSWNSGALTSGVHTFPAVLQSSGLYSLSSVVTVPSSSLGTQTYTCNVDHKPSNTKVDKRVESKYGPPCPPCPAPEFRGGPKVFLFPPKPKDTLMISRTPEVTCVVVDVSQEDPEVQFNWYVDGVEVHNAKTKPREEQFASTYRVVSVLTVLHQDWLNGKEYKCKVSNKGLPSSIEKTISKAKGQPREPQVYTLPPSQEEMTKNQVSLTCLVKGFYPSDIAVEWESNGQPENNYKTTPPVLDSDGSFFLYSKLTVDKSRWQEGNVFSCSVMHEALHNHYTQESLSLSP light: DIVMTQSPLSLPVTPGEPASISCRSSQPPVHSNRNTYLHWYQQKPGQAPRLLIYKVSNRFSGVPDRFSGSGSGTDFTLKISRVEAEDVGVYYCGQGTQVPYTFGQGTKLEIKRTVAAPSVFIFPPSDEQLKSGTASVVCLLNNFYPREAKVQWKVDNALQSGNSQESVTEQDSKDSTYSLSSTLTLSKADYEKHKVYACEVTHQGLSSPVTKSFNRGEC |
| 0.4 | TR01H109-E2702GsKsc/GCH094-E2704sEpsc/L0011-k0 (bispecific antibody, human IgG4 S228P, kappa, N297A) heavy 1: QVQLVESGGGLVQPGRSLRLSCAASGFTFSNAWMHWVRQAPGKGLEWVAQIKDKSQNYATYVAESVKGRFTISRDDSKNSLYLQMNSLKTEDTAVYYCRYVHYAAGYGVDAWGQGTTVTVSSASTKGPSVFPLAPCSRSTSESTAALGCLVKDYFPEPVTVSWNSGALTSGVHTFPAVLQSSGLYSLSSVVTVPSSSLGTKTYTCNVDHKPSNTKVDKRVESKYGPPCPPCPAPEFRGGPKVFLFPPKPKDTLMISRTPEVTCVVVDVSQEDPEVQFNWYVDGVEVHNAKTKPREEQFASTYRVVSVLTVLHQDWLNGKEYKCKVSNKGLPSSIEKTISKAKGQPREPQVYTLPPSQKEMTKNQVSLTCLVKGFYPSDIAVEWESNGQPENNYKTTPPVLDSDGSFFLYSKLTVDKSRWQEGNVFSCSVMHEALHNRYTQKSLSLSP heavy 2: QVQLVQSGAEVKKPGASVTVSCKASGYTFTDYEMHWVRQAPGEGLEWMGAIDGETPDTAYSEKFKGRVTLTADKSTSTAYMELSSLTSEDTAVYYCTRFYSYTYWGQGTLVTVSSASTKGPSVFPLAPCSRSTSESTAALGCLVKDYFPEPVTVSWNSGALTSGVHTFPAVLQSSGLYSLSSVVTVPSSSLGTQTYTCNVDHKPSNTKVDKRVESKYGPPCPPCPAPEFRGGPKVFLFPPKPKDTLMISRTPEVTCVVVDVSQEDPEVQFNWYVDGVEVHNAKTKPREEQFASTYRVVSVLTVLHQDWLNGKEYKCKVSNKGLPSSIEKTISKAKGQPREPQVYTLPPSQEEMTKNQVSLTCLVKGFYPSDIAVEWESNGQPENNYKTTPPVLDSDGSFFLYSKLTVDKSRWQEGNVFSCSVMHEALHNHYTQESLSLSP light: DIVMTQSPLSLPVTPGEPASISCRSSQPLVHSNRNTYLHWYQQKPGQAPRLLIYKVSNRFSGVPDRFSGSGSGTDFTLKISRVEAEDVGVYYCGQGTQVPYTFGQGTKLEIKRTVAAPSVFIFPPSDEQLKSGTASVVCLLNNFYPREAKVQWKVDNALQSGNSQESVTEQDSKDSTYSLSSTLTLSKADYEKHKVYACEVTHQGLSSPVTKSFNRGEC |
